Data as given in PMC6335422 (Nature Communications, 2019).

B4: His-tagged Erh1 (residues 1-104) (natural protein, S. pombe, UniProt G2TRN4 1-104, looked up)
chain: MSPPPAESHIILLIQQGSDPKTRIWSDHCSLRSAIEYIVGVYQTNQAVSEKESIDVSRFFNFFDEIYDCVPLVYDRHFRAYIPHEKQWLLHHAQEYLTAARQIP
notes: Erh1 (Enhancer of rudimentary homolog 1), S. pombe, residues 1-104; Cloned into p28a, a modified pET28a without a thrombin cleavage site; Homodimer by SEC and in the crystal; also called Enhancer of rudimentary homolog 1; source: E. coli BL21 (Gold), purified (Ni-chelating resin, SEC)

Legend:
[1] = target: B4; assay: SEC; analytical size-exclusion chromatography, calibrated Superdex75 10/300 GL column; Erh1 alone and Erh1 with Mmi1^95-122 after removal of the SUMO tag by ULP1; conditions: both partners purified
[2] = tested on: Erh1; assay: GST pull-down of Erh1 with GST-tagged Mmi1 fragments, Coomassie; assay type: binding, S. pombe; conditions: GST-Mmi1 fusion incubated with Erh1, glutathione-agarose, SDS-PAGE
Source text: Fig. 1 Mmi1 interacts with Erh1 in a 2:2 stoichiometry. a Shown is a schematic representation of the domain architecture of Mmi1. The disorder score from DISOPRED3 Server[62] and the conservation score are shown below. The conservation score is generated by a Protein Residue Conservation Prediction Server[63] from the sequence alignment of Mmi1 orthologues from S. pombe, S. cryophilus, S. octosporus, and S. japonicus. b–d Interactions of GST tagged Mmi1 peptides (GST-Mmi1) with Erh1 visualized by Coomassie blue staining. The indicated GST-Mmi1 fusion proteins or GST alone were incubated with Erh1. The complexes were collected with glutathione-agarose resin and bound proteins were eluted and then subjected to SDS-PAGE. GST or GST-Mmi1 fusion proteins without Erh1 are shown as a negative control. Source data are provided as a Source Data file. e The raw ITC titration data of Erh1 with SUMO tagged Mmi1^95–122 and its fitting curve are shown. KD dissociation constant, DP differential power, N binding stoichiometry, ΔH binding enthalpy. f ITC fitting curves of Erh1 using SUMO tagged Mmi1^95–122 (magenta), Mmi1^106–122 (blue) and Mmi1^95–111 (green) are shown. g Size-exclusion analysis of Erh1 (magenta) and Erh1-Mmi1^95–122 (blue). Marker sizes are 62.9 KDa (Albumin), 46.7 KDa (Ovalbumin), 20.3 KDa (Chymotrypsinogen), 14.6 KDa (Ribonuclease A). Also shown are theoretical monomer sizes (kDa) of Erh1 protein and Mmi1^95–122 peptide TEXT PRINTED IN THE PICTURE: (e) Mmi1^95–122 - Erh1: KD (μM) 0.83±0.19; N (sites) 0.90±0.01; ΔH (kJ per mol) −106±3.02 | (f) Mmi1^95–122: Erh1 KD (μM): 0.83±0.19 | (f) Mmi1^106–122: Erh1 KD (μM): 9.94±1.19 | (f) Mmi1^95–111: Erh1 KD (μM): no binding | (g) Erh1: 13.2 kDa | (g) Mmi1^95–122: 3.5 kDa
A region of Erh1 (residues 1–104) was amplified by PCR from the S. pombe genome and cloned into a modified pET28a (Novagen) vector without a thrombin protease cleavage site (p28a). GST-Mmi1^YTH was sub-cloned from a Mmi1^YTH-p28a construct to a modified PGex-4T1 vector with a TEV protease cleavage site (Tev4T1). […]

[3] = target: T1, Erh1 R23A (S. pombe, UniProt G2TRN4 1-104, R23A); assay: ITC; SUMO-tagged Mmi1 peptides titrated into Erh1 in the sample cell; MicroCal iTC200, 293 K; 20 mM Tris-HCl pH 7.5, 150 mM NaCl; single-site binding model; conditions: both partners purified
T1 construct: Erh1, S. pombe, residues 1-104, point mutant made with the MutanBEST kit; source: E. coli BL21 (Gold), purified (Ni-chelating resin, size-exclusion chromatography)
T1 sequence (looked up): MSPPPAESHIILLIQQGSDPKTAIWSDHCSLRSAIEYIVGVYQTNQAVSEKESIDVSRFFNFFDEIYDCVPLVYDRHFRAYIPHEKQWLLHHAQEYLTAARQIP

[4] = target: T2, Erh1 E85A (S. pombe, UniProt G2TRN4 1-104, E85A); assay: as above; conditions: both partners purified
T2 construct: Erh1, S. pombe, residues 1-104, point mutant made with the MutanBEST kit; source: E. coli BL21 (Gold), purified (Ni-chelating resin, size-exclusion chromatography)
T2 sequence (looked up): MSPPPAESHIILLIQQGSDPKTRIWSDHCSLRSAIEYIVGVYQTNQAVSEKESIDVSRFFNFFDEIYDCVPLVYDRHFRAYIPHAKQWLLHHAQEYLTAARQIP

[5] = target: T3, Erh1 H9A (S. pombe, UniProt G2TRN4 1-104, H9A); assay: as above; conditions: both partners purified
T3 construct: Erh1, S. pombe, residues 1-104, point mutant made with the MutanBEST kit; source: E. coli BL21 (Gold), purified (Ni-chelating resin, size-exclusion chromatography)
T3 sequence (looked up): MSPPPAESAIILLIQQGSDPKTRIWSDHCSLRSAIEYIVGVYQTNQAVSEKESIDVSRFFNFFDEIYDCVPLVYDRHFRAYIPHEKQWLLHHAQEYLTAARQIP

[6] = target: T4, Erh1 D68A (S. pombe, UniProt G2TRN4 1-104, D68A); assay: as above; conditions: both partners purified
T4 construct: Erh1, S. pombe, residues 1-104, point mutant made with the MutanBEST kit; source: E. coli BL21 (Gold), purified (Ni-chelating resin, size-exclusion chromatography)
T4 sequence (looked up): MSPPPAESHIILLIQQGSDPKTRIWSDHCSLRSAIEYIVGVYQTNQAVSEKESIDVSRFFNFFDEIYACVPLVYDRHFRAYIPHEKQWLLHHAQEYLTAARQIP

[7] = target: T5, Erh1 D27A (S. pombe, UniProt G2TRN4 1-104, D27A); assay: as above; conditions: both partners purified
T5 construct: Erh1, S. pombe, residues 1-104, point mutant made with the MutanBEST kit; source: E. coli BL21 (Gold), purified (Ni-chelating resin, size-exclusion chromatography)
T5 sequence (looked up): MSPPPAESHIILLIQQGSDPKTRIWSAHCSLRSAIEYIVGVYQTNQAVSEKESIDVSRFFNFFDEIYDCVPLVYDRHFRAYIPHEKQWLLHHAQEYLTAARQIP

[8] = target: the molecule itself; assay: SEC; analytical size-exclusion chromatography, calibrated Superdex75 10/300 GL column; Erh1 alone and Erh1 with Mmi1^95-122 after removal of the SUMO tag by ULP1
[9] = target: T6, GST-tagged Mmi1^1-122 amino-terminal fragment (S. pombe, UniProt O74958 1-122); assay: pull-down; GST-Mmi1 fusion proteins incubated with Erh1, collected with glutathione-agarose resin, eluted, SDS-PAGE with Coomassie blue staining; conditions: both partners purified
T6 construct: Vector Tev4T1 (modified pGEX-4T1 with a TEV site); source: E. coli BL21 (Gold), purified (glutathione sepharose, SEC)
T6 sequence (looked up): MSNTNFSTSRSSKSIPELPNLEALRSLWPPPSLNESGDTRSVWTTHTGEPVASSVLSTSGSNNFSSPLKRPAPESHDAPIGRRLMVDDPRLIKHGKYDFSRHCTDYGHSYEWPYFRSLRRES

[10] = Analytical size-exclusion chromatography (oligomeric state); assay type: physicochemical
Method: Next, we assessed the stoichiometry of Erh1 and Erh1-Mmi1^95–122 complexes by analytical size-exclusion chromatography (SEC) using a calibrated Superdex75 10/300 GL column (GE Healthcare). Erh1 eluted as a single peak at 11.41 mL, corresponding to an apparent molecular weight (MW) of 26 kDa. With a predicted molecular weight (MW) of ~13.2 kDa, this elution profile likely represents Erh1 homodimers (Fig. 1g). This is consistent with previous reports showing that human ERH protein exists as a dimer in solution[37].
We next purified SUMO-tagged Mmi1^95–122 and incubated it with Erh1, followed by removal of the SUMO tag by ULP1 enzyme.

[11] = target: B4; assay: ITC; MicroCal iTC200, 293 K, 20 mM Tris-HCl pH 7.5, 150 mM NaCl; SUMO-tagged Mmi1 peptides titrated into Erh1 in the cell; single-site binding model; conditions: both partners purified

B1: Mmi1^95-122 peptide (SUMO tag removed) (peptide, UniProt O74958 95-122, looked up)
chain: GKYDFSRHCTDYGHSYEWPYFRSLRRES
notes: also called EID; EIM peptide; source: E. coli BL21 (Gold), purified as SUMO fusion, incubated with Erh1, SUMO tag removed by ULP1; not shown: His6, N-terminal, cleaved; SUMO, N-terminal, cleaved
stoichiometry N [1]: 1 Mmi1 per Erh1 (printed as 2:2)

B2: GST-tagged YTH domain of Mmi1: carboxy-terminal YTH domain of Mmi1, purified GST fusion (protein)
chain: SRYFIMLCDNETAIAHAKKTSIWAVKKDSSKRISDAYKKASVYFIFVAQQTYNALGYAQVVSDLNSTELPFWSDSSHAGGVRIKWIKTCNLFSAEISEIVSHMDHGSEARDGMEMMYDEGSRLCTLI
modifications: left off: GST, end not stated, kept
notes: carboxy-terminal YTH domain of Mmi1, purified GST fusion
interaction with Erh1 (GST pull-down) [2]: no interaction

B3: SUMO-tagged Mmi1 95-122 (domain or fragment, S. pombe, UniProt O74958 95-122, looked up)
chain: GKYDFSRHCTDYGHSYEWPYFRSLRRES
notes: SUMO stands after the His6 tag at the N-terminus; also called Mmi1wt; source: E. coli BL21 (Gold), purified (Ni-chelating resin, size-exclusion chromatography); not shown: SUMO, N-terminal, kept
Kd [3]: 1.48 ± 1.07 µM | stoichiometry N [3]: 1.28 | Kd [4]: 2.15 ± 0.291 µM | stoichiometry N [4]: 1.08 | Kd [5]: 1.53 ± 0.205 µM | stoichiometry N [5]: 1.32 | Kd [6]: 3.96 ± 0.551 µM | stoichiometry N [6]: 1.34 | Kd [7]: 2.04 ± 0.366 µM | stoichiometry N [7]: 1.14

B4
stoichiometry N [8]: 2 | binding result [9]: binds

B5: Erh1: S. pombe ortholog of human ERH (protein)
chain: MSPPPAESHIILLIQQGSDPKTRIWSDHCSLRSAIEYIVGVYQTNQAVSEKESIDVSRFFNFFDEIYDCVPLVYDRHFRAYIPHEKQWLLHHAQEYLTAARQIP
modifications: left off: His6, end not stated, state not stated
notes: S. pombe ortholog of human ERH
calculated molecular weight of complex with Erh1 by SEC ([10]; Erh1 associated with Mmi1^95–122 after SUMO tag removal by ULP1, consistent with 2:2 stoichiometry): 33 kDa | apparent molecular weight by SEC (Erh1 alone) ([10]; Superdex75 10/300 GL, calibrated, predicted monomer ~13.2 kDa, likely homodimer): 26 kDa

B6: SUMO tagged Mmi1^95-122 (domain or fragment, S. pombe, UniProt O74958 95-122, looked up)
chain: GKYDFSRHCTDYGHSYEWPYFRSLRRES
notes: SUMO protein fused at the N-terminus following the His6 tag (modified pET28a); source: E. coli BL21 (Gold), purified (Ni-chelating resin, SEC); not shown: SUMO, N-terminal, kept
Kd [11]: 0.83 ± 0.19 µM | stoichiometry N [11]: 0.9
